T1: Centrosomal protein 190 (CP190) (Drosophila (endogenous in 0-24 h Oregon …, UniProt Q24478 1-1096))
T1 construct: Centrosomal protein 190 (CP190), universal insulator protein of Drosophila; endogenous protein in embryonic nuclear extract; source: endogenous, nuclear extract of 0-24 h Drosophila embryos
T1 sequence (looked up): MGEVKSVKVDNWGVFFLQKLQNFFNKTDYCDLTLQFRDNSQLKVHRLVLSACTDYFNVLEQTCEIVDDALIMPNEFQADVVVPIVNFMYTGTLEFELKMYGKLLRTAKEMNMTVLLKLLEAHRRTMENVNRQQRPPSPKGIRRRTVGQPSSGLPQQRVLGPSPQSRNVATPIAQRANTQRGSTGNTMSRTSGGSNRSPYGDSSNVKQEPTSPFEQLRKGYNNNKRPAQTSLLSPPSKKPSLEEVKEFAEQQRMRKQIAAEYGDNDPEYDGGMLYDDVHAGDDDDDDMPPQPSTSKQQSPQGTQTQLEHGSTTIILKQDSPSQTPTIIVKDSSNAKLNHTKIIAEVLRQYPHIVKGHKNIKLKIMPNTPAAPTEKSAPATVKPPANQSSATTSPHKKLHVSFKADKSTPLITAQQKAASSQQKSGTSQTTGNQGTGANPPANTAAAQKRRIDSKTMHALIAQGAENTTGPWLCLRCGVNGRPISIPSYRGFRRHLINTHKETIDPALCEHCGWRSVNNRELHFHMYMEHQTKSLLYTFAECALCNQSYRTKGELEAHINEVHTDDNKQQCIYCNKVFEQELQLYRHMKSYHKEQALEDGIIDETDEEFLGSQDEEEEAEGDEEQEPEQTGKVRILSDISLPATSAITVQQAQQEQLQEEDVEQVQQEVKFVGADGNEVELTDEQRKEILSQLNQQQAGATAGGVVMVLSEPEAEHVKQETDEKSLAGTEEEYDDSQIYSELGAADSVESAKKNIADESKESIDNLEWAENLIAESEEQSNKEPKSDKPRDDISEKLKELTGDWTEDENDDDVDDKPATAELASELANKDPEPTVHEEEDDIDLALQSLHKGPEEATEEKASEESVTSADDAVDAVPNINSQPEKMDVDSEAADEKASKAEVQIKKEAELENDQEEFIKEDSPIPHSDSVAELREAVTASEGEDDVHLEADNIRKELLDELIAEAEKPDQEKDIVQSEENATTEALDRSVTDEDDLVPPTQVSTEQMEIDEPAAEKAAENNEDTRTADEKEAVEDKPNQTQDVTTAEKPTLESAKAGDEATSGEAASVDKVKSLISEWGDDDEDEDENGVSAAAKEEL

T2: Suppressor of Hairy wing [Su(Hw)] (Drosophila (endogenous in 0-24 h Oregon …, UniProt P08970 1-941))
T2 construct: endogenous protein in embryonic nuclear extract; source: endogenous, nuclear extract of 0-24 h Drosophila embryos
T2 sequence (looked up): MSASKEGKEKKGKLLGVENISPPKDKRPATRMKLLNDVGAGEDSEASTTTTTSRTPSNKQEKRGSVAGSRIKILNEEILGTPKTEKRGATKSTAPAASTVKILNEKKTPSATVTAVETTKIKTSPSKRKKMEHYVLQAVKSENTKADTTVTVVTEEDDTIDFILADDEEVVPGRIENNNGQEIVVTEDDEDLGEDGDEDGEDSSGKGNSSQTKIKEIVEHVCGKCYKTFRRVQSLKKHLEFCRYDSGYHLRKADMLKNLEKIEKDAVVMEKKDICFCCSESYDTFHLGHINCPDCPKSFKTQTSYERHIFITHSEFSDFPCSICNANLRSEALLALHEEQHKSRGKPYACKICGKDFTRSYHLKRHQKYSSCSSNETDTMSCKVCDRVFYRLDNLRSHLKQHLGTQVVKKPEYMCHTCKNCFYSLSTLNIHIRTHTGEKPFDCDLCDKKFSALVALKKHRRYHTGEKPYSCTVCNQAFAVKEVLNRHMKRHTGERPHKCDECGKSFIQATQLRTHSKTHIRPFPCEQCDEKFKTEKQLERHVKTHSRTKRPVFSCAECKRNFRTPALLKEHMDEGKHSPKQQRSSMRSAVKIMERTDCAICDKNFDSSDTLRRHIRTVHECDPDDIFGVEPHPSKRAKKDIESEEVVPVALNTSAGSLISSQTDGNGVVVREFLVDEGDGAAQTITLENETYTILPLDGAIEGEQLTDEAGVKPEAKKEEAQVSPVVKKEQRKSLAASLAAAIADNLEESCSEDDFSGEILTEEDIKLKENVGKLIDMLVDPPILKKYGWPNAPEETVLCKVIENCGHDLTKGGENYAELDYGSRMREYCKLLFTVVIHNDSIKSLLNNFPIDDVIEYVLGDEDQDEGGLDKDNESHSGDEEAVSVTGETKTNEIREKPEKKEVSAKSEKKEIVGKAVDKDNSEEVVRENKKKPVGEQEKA

B1: Modifier of mdg4 [Mod(mdg4)] 67.2 kDa isoform [Mod(mdg4)67.2] (natural protein, UniProt Q86B87 1-610, looked up)
chain: MADDEQFSLCWNNFNTNLSAGFHESLCRGDLVDVSLAAEGQIVKAHRLVLSVCSPFFRKMFTQMPSNTHAIVFLNNVSHSALKDLIQFMYCGEVNVKQDALPAFISTAESLQIKGLTDNDPAPQPPQESSPPPAAPHVQQQQIPAQRVQRQQPRASARYKIETVDDGLGDEKQSTTQIVIQTTAAPQATIVQQQQPQQAAQQIQSQQLQTGTTTTATLVSTNKRSAQRSSLTPASSSAGVKRSKTSTSANVMDPLDSTTETGATTTAQLVPQQITVQTSVVSAAEAKLHQQSPQQVRQEEAEYIDLPMELPTKSEPDYSEDHGDAAGDAEGTYVEDDTYGDMRYDDSYFTENEDAGNQTAANTSGGGVTATTSKAVVKQQSQNYSESSFVDTSGDQGNTEAQAATSASATKIPPRKRGRPKTKVEDQTPKPKLLEKLQAATLNEEASEPAVYASTTKGGVKLIFNGHLFKFSFRKADYSVFQCCYREHGEECKVRVVCDQKRVFPYEGEHVHFMQASDKSCLPSQFMPGESGVISSLSPSKELLMKNTTKLEEADDKEDEDFEEFEIQEIDEIELDEPEKTPAKEEEVDPNDFREKIKRRLQKALQNKKK
notes: Modifier of mdg4, the 67.2 kDa isoform, Drosophila; The gene has many isoforms; the 67.2 kDa isoform is meant; to be checked; source: endogenous, nuclear extract of 0-24 h Drosophila embryos
B2: Motif 1 Binding Protein (M1BP) (natural protein, UniProt Q9VHM3 1-418, looked up)
chain: MSKSALKHLKSTCRVCAKYASNKRSPKLFERSNTKMIDNIEALTGLRLENYGCLPDQICECCSMELASAVKLRERCIAAQRELLLGLTEEQRQGISAFYRAAVMGEDIVQTVKTPDDDEVYATYQEIVLEEPKEEIDDTKVEYDNTYYEVAEGHAGEDDAASLIEEADYDSIMAEDEEQQQTLELDEDTELIVGDVNDAYVYDSDDEVAVLDNVLDDEYEHENIVVKKCSLPPKPKVRSDDARRRGTGGVYICEQCGNHIKGRMAFELHCRRHRGDKQFGCELCQSRFCTTSELKRHMRKHTGERPFACKYCGRCFTDYTTRVKHERTHTNERPYVCGTCGKAFTTGYILKNHMLIHSGERAYRCELCDKSFMLPTHLSTHFRSGVHKRHLEKAEMKQVLEQEQKRELKEEEEDSLHI
notes: endogenous protein in embryonic nuclear extract; source: endogenous, nuclear extract of 0-24 h Drosophila embryos

What was measured:
Assay in all cases: co-IP; 500 ug nuclear extract of 0-24 h Drosophila embryos incubated overnight at 4 C with antiserum (anti-Su(Hw), anti-CP190, anti-Mod(mdg4)67.2 or anti-M1BP; normal serum as control) cross-linked to Protein A or G Sepharose; washed twice with HBSMT and once with HBSM; western blotting; efficiency as percent of total input protein
Details in all cases: partners not purified
[1] = target: T1, Centrosomal protein 190 (CP190)
[2] = target: B2
[3] = target: T2, Suppressor of Hairy wing [Su(Hw)]
[4] = target: B1

Row | Binder | percent of total protein immunoprecipitated with anti-CP190 [1] [%] | percent of total protein immunoprecipitated with anti-M1BP [2] [%] | percent of total protein immunoprecipitated with anti-Su(Hw) [3] [%] | percent of total protein immunoprecipitated with anti-Mod(mdg4)67.2 [4] [%]
1 | B1 | 8.2 | 1.4 | 1.9 | 
2 | B2 | 3.8 |  | 5.3 | 3

— publication PMC8263732, “M1BP cooperates with CP190 to activate transcription at TAD borders and promote chromatin insulator activity” (Nature Communications, 2021)
